Biological target: IpaD^Δ192-267 (IpaD distal domain deletion mutant) (S. flexneri) (UniProt P18013)

Substance: IpaD^Δ192-267 (IpaD distal domain deletion mutant) (from UniProt P18013 15-332) (natural protein)
- stoichiometry N: 5

From article PMC3367090
